Target: T1, human oncostatin M receptor beta (OSMRβ) (human, UniProt Q99650 28-979)
T1 sequence (looked up): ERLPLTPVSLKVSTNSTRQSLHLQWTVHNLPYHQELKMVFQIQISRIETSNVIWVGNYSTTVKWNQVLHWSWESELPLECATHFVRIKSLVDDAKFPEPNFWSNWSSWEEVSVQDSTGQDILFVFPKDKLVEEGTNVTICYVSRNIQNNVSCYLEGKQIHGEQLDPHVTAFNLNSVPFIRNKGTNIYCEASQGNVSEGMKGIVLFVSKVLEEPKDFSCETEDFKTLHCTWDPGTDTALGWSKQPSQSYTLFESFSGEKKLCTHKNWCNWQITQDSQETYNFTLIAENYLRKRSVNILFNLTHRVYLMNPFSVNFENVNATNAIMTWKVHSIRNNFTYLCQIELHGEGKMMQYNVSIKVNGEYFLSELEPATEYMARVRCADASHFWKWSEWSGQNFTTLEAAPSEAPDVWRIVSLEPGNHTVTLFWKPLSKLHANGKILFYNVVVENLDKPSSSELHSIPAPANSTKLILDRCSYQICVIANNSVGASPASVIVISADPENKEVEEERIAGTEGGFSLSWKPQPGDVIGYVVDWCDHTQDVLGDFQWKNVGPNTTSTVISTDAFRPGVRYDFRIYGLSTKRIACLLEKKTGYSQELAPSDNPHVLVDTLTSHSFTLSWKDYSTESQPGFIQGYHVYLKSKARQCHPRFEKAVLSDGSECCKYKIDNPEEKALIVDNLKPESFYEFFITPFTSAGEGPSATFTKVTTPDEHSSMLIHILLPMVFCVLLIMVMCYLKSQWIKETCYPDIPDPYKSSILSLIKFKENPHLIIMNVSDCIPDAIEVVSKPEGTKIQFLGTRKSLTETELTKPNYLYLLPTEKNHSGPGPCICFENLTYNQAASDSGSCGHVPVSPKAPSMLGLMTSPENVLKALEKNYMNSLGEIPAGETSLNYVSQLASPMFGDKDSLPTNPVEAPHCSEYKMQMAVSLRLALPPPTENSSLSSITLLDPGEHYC
Test: cell-based or functional assay

Mean of IC50, inhibition of OSM-induced STAT3 phosphorylation (pSTAT3 Tyr705, MSD); IPF-derived lung fibroblasts, [OSM] 1 ng/mL: 12.4 ng/mL
Mean of IC50, inhibition of OSM-induced STAT3 phosphorylation (pSTAT3 Tyr705, MSD); IPF-derived lung fibroblasts, [OSM] 10 ng/mL: 56.1 ng/mL
Mean of IC50, inhibition of OSM-induced STAT3 phosphorylation (pSTAT3 Tyr705, MSD); normal keratinocytes, [OSM] 10 ng/mL: 4.95 ng/mL
Mean of IC50, inhibition of OSM-induced STAT3 phosphorylation (pSTAT3 Tyr705, MSD); normal keratinocytes, [OSM] 100 ng/mL: 45 ng/mL
Mean of IC50, inhibition of OSM-induced STAT3 phosphorylation (pSTAT3 Tyr705, MSD); normal lung fibroblasts, [OSM] 1 ng/mL: 13 ng/mL
Mean of IC50, inhibition of OSM-induced STAT3 phosphorylation (pSTAT3 Tyr705, MSD); normal lung fibroblasts, [OSM] 10 ng/mL: 88.2 ng/mL
B1: vixarelimab (antibody, human IgG4 S228P, lambda, N297Q, V domains shown)
VH: QVQLVQSGAEVKKPGASVKVSCKASGYTFTSYEINWVRQATGQGLEWMGWMNPNSGYTGYAQKFQGRVTMTRDTSISTAYMEMSSLRSEDTAVYYCARDIVAANTDYYFYYGMDVWGQGTTVTVSS
VL: QSVLTQPPSASGTPGQRVTISCSGSNSNIGSNTVNWYHQLPGTAPKLLIYNINKRPSGVPDRFSGSKSGSSASLAISGLQSEDEADYYCSTWDDSLDGVVFGGGTKLTVLG

Source: patent publication US20260000759A1 (Genentech, published 2026)
